{"source": "paper PMC5606850", "about": "“Acidic C-terminal domains autoregulate the RNA chaperone Hfq” (eLife, 2017)", "molecules": {"B1": {"name": "DsrA sRNA (structured_RNA)", "RNA": "GGGAACACAUCAGAUUUCCUGGUGUAACGAAUUUUUUAAGUGCUUCUUGCUUAAGCAAGUUUCAUCCCGACCCCCUCAGGGUCGGGAUUUUUUU"}, "B2": {"name": "ChiX sRNA (structured_RNA)", "RNA": "GGGACACCGUCGCUUAAAGUGACGGCAUAAUAAUAAAAAAAUGAAAUUCCUCUUUGACGGGCCAAUAGCGAUAUUGGCCAUUUUUUU"}, "B3": {"name": "ChiX: Class II sRNA, transcribed in vitro (nucleic acid)", "chain": "B2 RNA", "modifications": "unmodified RNA", "notes": "Class II sRNA, transcribed in vitro"}, "B4": {"name": "RyhB sRNA (structured_RNA)", "RNA": "GGGCGAUCAGGAAGACCCUCGAGGAGAACCUGAAAGCACGACAUUGCUCACAUUGCUUCCAGUAUUACUUAGCCAGCCGGGUGCUGGCUUUUU"}, "B5": {"name": "RyhB: sRNA, transcribed in vitro (nucleic acid)", "chain": "B4 RNA", "modifications": "unmodified RNA", "notes": "sRNA, transcribed in vitro"}, "B6": {"name": "RprA sRNA (structured_RNA)", "RNA": "GGGACGGUUAUAAAUCAACAUAUUGAUUUAUAAGCAUGGAAAUCCCCUGAGUGAAACAACGAAUUGCUGUGUGUAGUCUUUGCCCAUCUCCCACGAUGGGCUUUUUUUU"}, "B7": {"name": "BsCTD-FITC (B. subtilis Hfq CTD peptide) (peptide)", "peptide": "{FITC-Ahx}-QLELE-OH", "SMILES": "CC(C)C[C@H](NC(=O)[C@H](CCC(=O)O)NC(=O)[C@H](CC(C)C)NC(=O)[C@H](CCC(N)=O)NC(=O)CCCCCNC(=S)Nc1ccc2c(c1)C(=O)OC21c2ccc(O)cc2Oc2cc(O)ccc21)C(=O)N[C@@H](CCC(=O)O)C(=O)O", "notes": "Hfq, Bacillus subtilis, C-terminal end of the CTD; also called BsCTD-FITC peptide"}}, "key": {"[1]": {"experiment": "protein stability of Hfq65-K3 mutants", "format": "physicochemical, E. coli"}, "[2]": {"tested_on": "RNA molecular beacon and Target RNA", "experiment": "RNA annealing kinetics (molecular beacon and Target RNAs), stopped-flow fluorescence", "format": "biochemical", "settings": "50 nM molecular beacon, 100 nM Target, Hfq65 variants, TNK buffer, 30 °C", "procedure": "(§1) Figure 2. CTD and RNA occupy the same rim binding site. […] The CTD linker is shown in purple, the acidic tip in red and the N-terminal FITC as a yellow star. Hfq core is shown in cyan, with basic rim patches in dark blue. […] (C) Reaction scheme for annealing an RNA molecular beacon to a target RNA (open bar) ([Hopkins et al., 2011]; [Panja et al., 2015]). (D) Progress curves for annealing 50 nM molecular beacon and 100 nM Target by 50 nM Hfq65 hexamer at 30°C, measured by stopped-flow fluorescence. See Figure 2—figure supplement 3 for further data. (E) Contribution of core residues to CTD binding. Interaction energy (Expected Energetic Contribution; EEC) in silico for a core residue in the Rosetta models (solid symbols and solid line; adjusted R^2 = 0.77) or the average annealing rates for Target and Target-A18 relative to Hfq65 (open symbols and dashed line; adjusted R^2 = 0.94) versus experimental CTD binding energy (∆∆G°) for each Hfq65 variant. The binding energy, ∆∆G° = –RTln(Kd^MUT/Kd), reflects the perturbation to CTD binding by a mutation in Hfq65. The interaction energy in silico or EEC is defined as the average energy of a tail–core interaction multiplied by the average number of tail–core interactions per model (Figure 1B, top and Equation 3). The relative annealing rate for Hfq65 variants, krel = kobs^MUT/kobs^WT, is <1 if the mutated residue is important for RNA annealing. Figure 2—figure supplement 1. SDS-PAGE of purified Hfq variants. […] Annealing of 100 nM Target RNA to 50 nM beacon RNA by Hfq65 and Hfq65 variants was measured by stopped flow fluorescence at 30°C in 1 × TNK buffer. […] The change in fluorescence emission intensity was normalized to the maximum fluorescence within an experiment. […]\nTo determine how much core residues that bind the CTD contribute to Hfq’s RNA annealing activity, we compared the effect of rim mutations on the rate of base pairing between an RNA molecular beacon and the 16 nt Target RNA by stopped-flow fluorescence spectroscopy (Figure 2C) ([Hopkins et al., 2011]). […]"}, "[3]": {"experiment": "SDS-PAGE oligomerization of purified Hfq variants", "format": "physicochemical, E. coli", "settings": "4–20% SDS-PAGE, ~2.8 µg protein, 2% SDS, boiled", "procedure": "as §1, with “variants. WT Hfq assembles into hexamers and dodecamers that are stable to SDS-PAGE, which can be used to evaluate the oligomerization of Hfq variants. Purified Hfq protein (~2.8 µg) was separated on a 4–20% SDS-PAGE gel and stained with Coomassie blue (lanes 2–6). Samples were prepared in 2% SDS and boiled before loading. Lane 1, Protein standards (10 µL All Blue Precision Plus, […]).” for “variants.”"}, "[4]": {"biological_target": "Hfq65 (Hfq core, CTD deleted) (Escherichia coli, UniProt P0A6X3 1-65)", "experiment": "competition; displaces CTD-FITC peptide; strong; IC50 only in figure; Anisotropy: 10 mM Tris-HCl pH 7.5, 50 mM NaCl, 50 mM KCl, 30 C; CTD-FITC competition: 50 mM Tris-HCl pH 7.5, 30 C; pUC19 EMSA: 40 mM Tris-HCl pH 7.5, 0.14 mM EDTA, 35 mM NH4Cl, 3.7% glycerol, 25 C (competition legend 30 C)", "settings": "protein: recombinant, tags: untagged, chain copies: 6"}, "Hfq102 (wild-type Hfq)": {"biological_target": "Hfq102 (wild-type Hfq) (Escherichia coli, UniProt P0A6X3 1-102)", "experiment": "competition; vs pUC19 EMSA; strongest, saturates at 1:1; Anisotropy: 10 mM Tris-HCl pH 7.5, 50 mM NaCl, 50 mM KCl, 30 C; CTD-FITC competition: 50 mM Tris-HCl pH 7.5, 30 C; pUC19 EMSA: 40 mM Tris-HCl pH 7.5, 0.14 mM EDTA, 35 mM NH4Cl, 3.7% glycerol, 25 C (competition legend 30 C)", "settings": "protein: recombinant, tags: untagged, chain copies: 6"}, "Hfq102·pUC19 complex": {"tested_on": "Hfq102·pUC19 complex", "experiment": "RNA or DNA competition of Hfq102·pUC19 complexes, EMSA", "format": "binding, E. coli", "procedure": "Figure 5. CTD and RNAs inhibit DNA binding to Hfq by obstructing the basic rim patch. (A, B) Agarose gel electrophoretic mobility shift assays of 0–3.3 μM hexamer Hfq102, Hfq102-R16A, Hfq65 or Hfq65-R16A binding to 6 nM linear pUC19 DNA ([…]) at 25°C, stained with SYBR Gold. Hfq65 forms large aggregates that fail to enter the gel (Figure 5—figure supplement 1). (C, D) Line densitometry of DNA migration in (A, B). Free pUC19 (no Hfq) is shown in light grey. Samples with increasing Hfq concentration are shown in darker shades of grey. (E, F) RNA competition. Complexes of 0.5 μM Hfq102 hexamer and 6 nM linear pUC19 (black) were challenged by 0–2 μM RNA or DNA competitor (darker shades of red). pUC19 control in the absence of Hfq is shown in light grey. […] Digestion of Hfq65 and Hfq65-R16A with Proteinase K liberates DNA from Hfq•DNA aggregates, allowing it to be detected (lanes 9 and 10). […] The small proportion of Hfq65·DNA complexes remaining in the supernatant were only detected in the gel after treatment with salt. […]\nSamples (10 µL) containing linear pUC19 (0.145 nmol bp), 0–3.333 µM Hfq hexamer, in 40 mM Tris-HCl pH 7.5, 0.14 mM EDTA, 35 mM NH4Cl, 3.7% (v/v) glycerol, 0.05% (w/v) bromophenol blue were incubated at 25°C for 30 min. […] The fluorescence intensity was measured on a line from the bottom edge of the well through the middle of the lane to visualize the migration of pUC19. […]"}, "[5]": {"biological_target": "T1, E. coli Hfq65 (Hfq core; truncated variant lacking the CTD) (E. coli, UniProt P0A6X3 1-65)", "T1 construct": "Untagged; Forms a homohexameric ring; also called core Hfq; Hfq65 core", "experiment": "fluorescence polarisation; 45 nM FITC-labelled peptide titrated with Hfq65 or variant (0–100 µM Hfq monomer), 50 mM Tris·HCl pH 7.5 (low salt), 30 °C, duplicate, single-site isotherm; Kd in Hfq monomer", "settings": "both partners purified"}}, "note": "*: point of attachment. FITC = O=C1OC2(c3ccc(O)cc3Oc3cc(O)ccc32)c2ccc(NC(=S)*)cc21; Ahx = NCCCCCC(=O)O"}
{"molecule": "Hfq65-K3Q", "values": [{"measurement": "formation of stable protein", "setting": "[1]", "value": "neither Hfq65-K3S nor Hfq65-K3Q formed stable proteins"}]}
{"molecule": "Hfq65-K3S", "values": [{"measurement": "formation of stable protein", "setting": "[1]", "value": "neither Hfq65-K3S nor Hfq65-K3Q formed stable proteins"}]}
{"molecule": "Hfq65-Q35A", "values": [{"measurement": "observed annealing rate of Hfq65 rim mutants", "setting": "[2]", "value": "relatively unaffected"}]}
{"molecule": "Hfq102-R16A: rim mutation R16A of full-length Hfq (printed R16A in b39)", "values": [{"measurement": "oligomeric state on SDS-PAGE", "setting": "[3]", "value": "only forms hexamer (blue dot) and monomer"}]}
{"molecule": "B1", "values": [{"measurement": "binding result", "setting": "[4]", "value": "binds"}]}
{"molecule": "B2", "values": [{"measurement": "binding result", "setting": "Hfq102 (wild-type Hfq); label: 32P in annealing EMSA", "value": "binds"}, {"measurement": "binding result", "setting": "[4]; label: 32P in annealing EMSA", "value": "binds"}]}
{"molecule": "B3", "values": [{"measurement": "competition against pUC19 DNA for binding to Hfq102", "setting": "Hfq102·pUC19 complex", "value": "strongest competitors"}]}
{"molecule": "B4", "values": [{"measurement": "binding result", "setting": "Hfq102 (wild-type Hfq)", "value": "binds"}, {"measurement": "binding result", "setting": "[4]", "value": "binds"}]}
{"molecule": "B5", "values": [{"measurement": "competition against pUC19 DNA for binding to Hfq102", "setting": "Hfq102·pUC19 complex", "value": "strongest competitors"}]}
{"molecule": "B6", "values": [{"measurement": "binding result", "setting": "[4]", "value": "binds"}]}
{"molecule": "B7", "values": [{"measurement": "Kd", "setting": "[5]", "value": 8.7, "unit": "µM"}]}
